Laboratory results reported in patent publication US20250230242A1, “PHARMACEUTICAL COMPOSITION OF ANTI-TIM-3 ANTIBODY AND HYPOMETHYLATING AGENT” (NANJING SHUNXIN PHARMACEUTICALS CO., LTD. OF CHIATAI …, priority 2022, published 2025).
Values belong to the molecule of their own block, whether it stands above or below them.

Tests used:
Daudi cells [1] = assay: ADCC against Daudi cells; assay type: cell-based; details: 1 or 10 μg/mL, effector cells PBMC, FIG. 3
Experimental: (§1) After the reaction was completed, the mixture was centrifuged, and the supernatant was collected and measured for fluorescence values at 490 nm as excitation wavelength and 515 nm as emission wavelength. The cells were lysed directly with 0.1% Triton X-100 and centrifuged, and then the supernatant was collected to determine the total fluorescence value. The lysis rate (%) was calculated based on the fluorescence value.

Daudi cells [2] = assay: CDC against Daudi cells; assay type: cell-based; details: 10 or 100 μg/mL, 10% human serum, FIG. 4
Experimental: (§2) CHO-S-HuTIM-3 cells and Daudi cells (Shanghai Cell Bank of Chinese Academy of Sciences) were inoculated into a 96-well plate. […] Finally, CCK-8 reagent (Dojindo Laboratories) was added and reacted for 4 h. The OD value was measured at a wavelength of 450 nm using a microplate reader, and the lysis rate (%) was calculated.

[3] = biological target: T1, CHO-S-HuTIM-3 cells highly expressing human TIM-3 (Homo sapiens, UniProt Q8TDQ0); assay: Binding to cells highly expressing human TIM-3 (cell ELISA)
T1 construct: expressed in transfected cells; host or cells: CHO-S
Experimental: The human TIM-3 gene was transfected into CHO-S cells, and the cells were incubated in an incubator at 37° C. with 5% CO2 using a Dynamis AGT medium (containing 4 mM glutamic acid and 3 μg/mL Puromycin) to give CHO-S-HuTIM-3 cells. […] After the reaction was stopped with H2SO4, the OD value was measured at a wavelength of 450 nm using a full-function microplate reader Synergy H4. The binding EC50 was calculated based on the OD value.

CHO-S-HuTIM-3 cells [4] = assay: ADCC against CHO-S-HuTIM-3 cells; assay type: cell-based; details: 10 or 100 μg/mL, effector cells PBMC, FIG. 3
Experimental: as §1

CHO-S-HuTIM-3 cells [5] = assay: CDC against CHO-S-HuTIM-3 cells; assay type: cell-based; details: 10 or 100 μg/mL, 10% human serum, FIG. 4
Experimental: as §2

[6] = biological target: T2, human TIM-3 on CHO-S-HuTIM-3 cells (human, UniProt Q8TDQ0 22-301); assay: cell ELISA on CHO-S-HuTIM-3 cells, anti-human kappa-HRP
T2 construct: whole, on cells; Human TIM-3 gene transfected into CHO-S cells; also called CHO-S-HuTIM-3 cells highly expressing human TIM-3

[7] = biological target: T3, human TIM-3 recombinant protein (R&D) (human, UniProt Q8TDQ0 22-200); assay: ELISA, human TIM-3 coated, h50B5 titrated, anti-human kappa-HRP
T3 construct: Bought recombinant protein; also called human TIM-3 protein

[8] = biological target: T4, cynomolgus monkey TIM-3 recombinant protein (Acro) (cynomolgus monkey, UniProt A0A2K5U3G7 22-193); assay: ELISA, h50B5 coated at 2 µg/mL, cynomolgus TIM-3 titrated, Anti-His HRP
T4 construct: Bought recombinant protein; His tag implied only by the Anti-His HRP detection; also called cynomolgus monkey TIM-3 protein
T4 sequence: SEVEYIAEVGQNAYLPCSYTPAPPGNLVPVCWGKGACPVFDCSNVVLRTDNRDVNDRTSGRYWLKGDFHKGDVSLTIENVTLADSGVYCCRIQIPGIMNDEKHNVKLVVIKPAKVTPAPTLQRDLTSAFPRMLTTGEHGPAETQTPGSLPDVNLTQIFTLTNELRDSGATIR

Molecule: Rituxan®: positive control for ADCC and CDC with Daudi cells as target cells
- ADCC against Daudi cells (Daudi cells [1]): exhibited significant ADCC
- CDC against Daudi cells (Daudi cells [2]): exhibited significant CDC

- EC50 of binding to CHO-S-HuTIM-3 cells ([3]; FIG. 1): 6.8155 ± 0.1662 µg/mL
- maximum binding Emax (OD450), CHO-S-HuTIM-3 cells ([3]; FIG. 1, OD450): 0.26±0.05
Molecule: TSR022: anti-TIM-3 antibody used as benchmark, heavy chain SEQ ID NO: 22, light chain SEQ ID NO: 23 [reference compound]
- ADCC against CHO-S-HuTIM-3 cells (CHO-S-HuTIM-3 cells [4]): did not show significant ADCC
- CDC against CHO-S-HuTIM-3 cells (CHO-S-HuTIM-3 cells [5]): did not show significant CDC

- EC50 [6]: 1.46 µg/mL
- EC50 [7]: 0.291 µg/mL
- EC50 [8]: 1.64 µg/mL
B1: humanized anti-TIM-3 antibody h50B5 (antibody, human IgG4 S228P, kappa, V domains shown)
VH: QVQLVQSGAEVKKPGASVKVSCKASGYSFTGYTINWVRQAPGQGLEWMGLFNPYNGGTTYAQKFQGRVTMTVDKSTSTVYMELSSLRSEDTAVYYCARRYYGYDAMDYWGQGTLVTVSS
VL: DIQMTQSPSSLSASVGDRVTITCKSSQSVLYSSNQKNHLAWYQQKPGKAPKLLIYWASTRESGVPSRFSGSGSGTDFTLTISSLQPEDFATYYCHQYLSSYTFGQGTKLEIKR
notes: Humanized from mouse mAb 50B5 by CDR grafting; human IgG4 heavy chain constant region and human light chain constant region

- EC50 [6]: 6.82 µg/mL
B2: anti-TIM-3 antibody TSR022 (antibody, human IgG4 S228P, kappa, V domains shown)
VH: EVQLLESGGGLVQPGGSLRLSCAAASGFTFSSYDMSWVRQAPGKGLDWVSTISGGGTYTYYQDSVKGRFTISRDNSKNTLYLQMNSLRAEDTAVYYCASMDYWGQGTTVTVSS
VL: DIQMTQSPSSLSASVGDRVTITCRASQSIRRYLNWYHQKPGKAPKLLIYGASTLQSGVPSRFSGSGSGTDFTLTISSLQPEDFAVYYCQQSHSAPLTFGGGTKVEIKR
notes: Benchmark antibody, prepared in the same way as h50B5
